This note sets out measurements from the RNAGym collection of RNA variant scans (doi:10.1073/pnas.2313332121).

Variants at the floor of the assay were thinned out.

The labels stand for the following.
B1: TPR 5TU (parent)
chain: GGAUCUUCUCGAUCUAACAAAAAAGACAAAUCUGCCACAAAGCUUGAGAGCAUCUUCGGAUGCAGAGGCGGCAGCCUUCGGUGGCGCGAUAGCGCCAACGUUCUCAACUAUGACACGCAAAACGCGUGCUCCGUUGAAUGGAGUUUAUCAUG

The data set covers variants of B1. Put plainly: polymerase ribozyme fitness, log enrichment relative to wild type (log ratio); higher = more active; in vitro selection for triplet polymerase activity. In a few lines: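 A heterodimeric triplet polymerase ribozyme had each of its subunits mutagenized by PCR into a library, which was transcribed. One round of in vitro selection, done in triplicate, annealed each library with a biotinylated primer, its partner subunit and triplets, then incubated it frozen at −7 °C before gel excision of extended constructs, streptavidin-bead capture and RT-PCR. Fitness is the logarithm of genotype enrichment relative to wild-type enrichment, based on Illumina sequencing of inputs and outputs and inverse-variance-weighted replicate averages. A base-2 logarithm is used, and genotypes were kept only with ≥10 input reads and ≥1 read per output.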
For the variant C54U C125G, the “polymerase ribozyme fitness (log ratio)” value was -1.05.
The value for U4G A23G C32U G62C G94C G126A G143U was -4.05.
The value for A37C A115U was -1.16; that for A39U G46A C93G A119U U139G was no more than -4.2.
The value for U53A G80C A106C C125U was no more than -4.2; that for U6C A19C A26G C85G C108A was no more than -4.2.
U78C G92C C105U A106G C114U U148G: the “polymerase ribozyme fitness (log ratio)” value was no more than -4.2.
The same measure for G70A G100C: no more than -4.2.
The value for A12G C85U C118G C125A was -0.473; that for U61G C96U U144G was -1.1; that for U55G C93U U101G was -0.936.
The same measure for G48C A110C G141U U148G: no more than -4.2.
G58C G84A G112U: the “polymerase ribozyme fitness (log ratio)” value is no more than -4.2.
The value for A40U G62A C131G G136A was -3.43.
The value for C27U G92U was -1.78; that for A21C G34C A39U U55A C95G U104A A119G U144G U146A was no more than -4.2.
The value for A115C U127C was -1.1; that for G34U C36G G59C U148C was no more than -4.2.
With C51G U56A, the “polymerase ribozyme fitness (log ratio)” value is -2.67.
The same measure for U4C C96G: 0.0289; for A47U A64G G67A: no more than -4.2.
Consider C27A A49U C87A U134C G141A, for which the “polymerase ribozyme fitness (log ratio)” value is no more than -4.2.
The value for U6A C69G G84U U145C was -1.67; that for C76G C87G U90A A121C A122U was no more than -4.2.
The same measure for A30U C32G C54A C57G C99U A107G: no more than -4.2; for A26U C35G C69A G92A C96A A97G A120C: no more than -4.2; for A39G U77G: no more than -4.2.
For the variant U15G C57A G86U A122G, the “polymerase ribozyme fitness (log ratio)” value was -1.4.
The value for A138U U151C was -4.01; that for C32A U61A C63G A66U U77G was no more than -4.2; that for A89G C125U C132U was -1.73.
The same measure for A30U C85U A97U G128A G140C C149U: no more than -4.2.
The same measure for U13G G58C G62U U82A G86U U127C U146G: no more than -4.2.
Consider U45G C54U A110G, for which the “polymerase ribozyme fitness (log ratio)” value was no more than -4.2.
The value for A60G U102A U109G A115C was -3.77; that for A3C A16C G48A C96G was -3.42; that for C75U A121G was -0.596.
The value for G46C G58C G83C C125A was -4.17.
As for A41C U56G C76A C118G U134C, the “polymerase ribozyme fitness (log ratio)” value is -3.21.
The value for U82C G94C C108A A110G A113G G140U was no more than -4.2; that for U33A A41C U53C C57U G65A A66C G67C G80C was no more than -4.2; that for C27U U31A G48U C85U was -2.25.
The same measure for A20U G58A C96U U111G G124A U148A: no more than -4.2; for A20C C85A A97U: -3.02; for A21G A52U C85U G94U A98U C116U: -1.64.
The same measure for A20C C79A G94C: no more than -4.2; for U55A G67A U127A: no more than -4.2.
Turning to A24U G68C G81C G94A A98C U104C, the “polymerase ribozyme fitness (log ratio)” value is no more than -4.2.
The value for A52C G74C C108U A113G U145G was no more than -4.2; that for A41G C51U A89C C95A U135C U148A was no more than -4.2.
The value for C8A A17U A23U A26G C27G U90G G92A A115C was no more than -4.2; that for G50A A89U C99U was -2.94; that for A16U C57A C99G U104C was -3.73.
The value for C54A G84A A142C was -4.19; that for A60G C96G was -0.394; that for A16U G143C was -3.63.
As to C8A A41C A66U C69A U77C G83C G126U U130G G141C G152C, the “polymerase ribozyme fitness (log ratio)” value is no more than -4.2.
The value for A26C A30C U45A C54G G92A U104G A147G was no more than -4.2; that for A29G G84U G117A was no more than -4.2.
As to A12G C85A, the “polymerase ribozyme fitness (log ratio)” value is -1.31.
The value for G11A G141U was 0.246.
The value for A19G A26U C85A A97C A119U C123U was no more than -4.2; that for U61A U82A was -1.03.
The value for C57G C79U was -2.13.
In the case of C54G G65A C79U C85G A91U G136C, the “polymerase ribozyme fitness (log ratio)” value was no more than -4.2.
For the variant A19G A26C U55G G83U U151C, the “polymerase ribozyme fitness (log ratio)” value is no more than -4.2.
The same measure for U45C G48C C99A G143A U148C: no more than -4.2; for G48C G143U: -2.25; for C32G A49U G65U C93U C99G A110U A147U: no more than -4.2.
The value for G70U C76A was -4.19; that for A19C G62U C95U C96A was -2.36; that for U4A A21C was 0.483.
On to C79G G124U U139C, for which the “polymerase ribozyme fitness (log ratio)” value is no more than -4.2.
The same measure for C5G A120C: -0.488.
Regarding A16G C57A, the “polymerase ribozyme fitness (log ratio)” value was -0.592.
As to C54A C63G C69G C76G U82C C131G, the “polymerase ribozyme fitness (log ratio)” value was no more than -4.2.
The value for G11A U44A A52G C75U C76U G92C C149G was no more than -4.2; that for A24U C93U A119C was -1.98; that for A28U A49G C54A C93U U144C was no more than -4.2.
The value for U15G C72U C87A U134A A150C U151G was no more than -4.2; that for G50U G86A was -2.57; that for A19C U55A C123G C125A U148G was no more than -4.2.
For A47G U102C A142C C149U, the “polymerase ribozyme fitness (log ratio)” value was no more than -4.2.
The value for U55A C63A was -0.431.
